Data: publication PMC11765556, “Cytosine Methylation Changes the Preferred Cis-Regulatory Configuration of Arabidopsis WUSCHEL-Related Homeobox 14”

T1: AtWOX14 (homodimer on DNA) (Arabidopsis thaliana, UniProt Q9LM84 1-211)
T1 sequence: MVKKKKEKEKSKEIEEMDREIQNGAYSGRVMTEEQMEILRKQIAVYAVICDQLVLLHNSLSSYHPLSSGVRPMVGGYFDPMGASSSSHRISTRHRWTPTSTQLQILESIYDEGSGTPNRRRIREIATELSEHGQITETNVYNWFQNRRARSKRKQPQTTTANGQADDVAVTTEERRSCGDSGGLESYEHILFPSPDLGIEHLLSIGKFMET

T2: AtWOX14 (monomer) (Arabidopsis thaliana, UniProt Q9LM84 1-211)
T2 sequence: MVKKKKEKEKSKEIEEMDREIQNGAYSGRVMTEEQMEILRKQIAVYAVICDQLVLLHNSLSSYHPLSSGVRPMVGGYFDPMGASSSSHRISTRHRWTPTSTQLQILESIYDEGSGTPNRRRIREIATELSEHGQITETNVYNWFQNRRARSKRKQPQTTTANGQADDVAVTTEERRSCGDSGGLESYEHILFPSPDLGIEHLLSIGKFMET

B1: ER0-AT1G15640 (dsDNA)
DNA 1: AATAAGATGTACCCAATGATTGCAATGATGAGCCCAATGAGTGC
DNA 2: GCACTCATTGGGCTCATCATTGCAATCATTGGGTACATCTTATT
B2: ER0 (dsDNA)
DNA 1: ATGCTAGCTCCATCTGTGATTGCAATCAATGGCGGTGACGTACT
DNA 2: AGTACGTCACCGCCATTGATTGCAATCACAGATGGAGCTAGCAT
B3: M1 (dsDNA)
DNA 1: ATGCTAGCTCCATCTGTATTGATTGTTTATGGCGGTGACGTACT
DNA 2: AGTACGTCACCGCCATAAACAATCAATACAGATGGAGCTAGCAT
B4: ER1 (dsDNA)
DNA 1: ATGCTAGCTCCATCTGTGATTGACAATCAATGGCGGTGACGTACT
DNA 2: AGTACGTCACCGCCATTGATTGTCAATCACAGATGGAGCTAGCAT

Key:
[1] = biological target: T1, AtWOX14 (homodimer on DNA); assay: EMSA; 25-200 nM WOX14; dimeric shift; EMSA: 10 mM Tris (pH not stated), 50 mM NaCl, 1 mM MgCl2, 4% glycerol, 0.5 mM EDTA, 25 C 40 min, 30 ng probe in 20 uL; 6% native PAGE, 0.5x TBE, 4 C; conditions: protein: recombinant; tags: N-terminal His (pETG20A-His); chain copies: 2
AtWOX14 (monomer) = biological target: T2, AtWOX14 (monomer); assay: EMSA; 50-200 nM WOX14; monomeric shift; EMSA: 10 mM Tris (pH not stated), 50 mM NaCl, 1 mM MgCl2, 4% glycerol, 0.5 mM EDTA, 25 C 40 min, 30 ng probe in 20 uL; 6% native PAGE, 0.5x TBE, 4 C; conditions: protein: recombinant; tags: N-terminal His (pETG20A-His)
[2] = biological target: T1, AtWOX14 (homodimer on DNA); assay: EMSA; 50-200 nM WOX14; dimeric shift at high protein; EMSA: 10 mM Tris (pH not stated), 50 mM NaCl, 1 mM MgCl2, 4% glycerol, 0.5 mM EDTA, 25 C 40 min, 30 ng probe in 20 uL; 6% native PAGE, 0.5x TBE, 4 C; conditions: protein: recombinant; tags: N-terminal His (pETG20A-His); chain copies: 2

Binder	binding result [1]	binding result (AtWOX14 (monomer))	binding result [2]
B1	binds	–	–
B2	–	binds	binds
B3	–	binds	–
B4	–	binds	binds
